Measurements as given in patent US20230234991A1, “SELF-ASSEMBLED PEPTIDE NANORODS AND USES THEREOF” (TRANSFERT PLUS, SOCIÉTÉ EN COMMANDITE, priority 2020, published 2023).
Values joined by “and” are separate entries in the source; they are usually repeats but may differ in a detail not shown here. Equal entries are not always repeated. “Also recorded” adds a separate entry of the source.

Experiments:
[1] = Negative-stain transmission electron microscopy of the assemblies; type: physicochemical
[2] = Atomic force microscopy of the assemblies; type: physicochemical
[3] = Zeta potential; type: physicochemical
[4] = biological target: T1, TLR2 (Mus musculus, UniProt Q9QUN7); experiment: TLR-2 stimulation, SEAP activity in HEK-Blue mTLR2 cells; type: cell-based; details: HEK-Blue mTLR2 cells, 16 h
T1 construct: host or cells: HEK293 (HEK-Blue mTLR2)
T1 sequence (Q9QUN7 25-784): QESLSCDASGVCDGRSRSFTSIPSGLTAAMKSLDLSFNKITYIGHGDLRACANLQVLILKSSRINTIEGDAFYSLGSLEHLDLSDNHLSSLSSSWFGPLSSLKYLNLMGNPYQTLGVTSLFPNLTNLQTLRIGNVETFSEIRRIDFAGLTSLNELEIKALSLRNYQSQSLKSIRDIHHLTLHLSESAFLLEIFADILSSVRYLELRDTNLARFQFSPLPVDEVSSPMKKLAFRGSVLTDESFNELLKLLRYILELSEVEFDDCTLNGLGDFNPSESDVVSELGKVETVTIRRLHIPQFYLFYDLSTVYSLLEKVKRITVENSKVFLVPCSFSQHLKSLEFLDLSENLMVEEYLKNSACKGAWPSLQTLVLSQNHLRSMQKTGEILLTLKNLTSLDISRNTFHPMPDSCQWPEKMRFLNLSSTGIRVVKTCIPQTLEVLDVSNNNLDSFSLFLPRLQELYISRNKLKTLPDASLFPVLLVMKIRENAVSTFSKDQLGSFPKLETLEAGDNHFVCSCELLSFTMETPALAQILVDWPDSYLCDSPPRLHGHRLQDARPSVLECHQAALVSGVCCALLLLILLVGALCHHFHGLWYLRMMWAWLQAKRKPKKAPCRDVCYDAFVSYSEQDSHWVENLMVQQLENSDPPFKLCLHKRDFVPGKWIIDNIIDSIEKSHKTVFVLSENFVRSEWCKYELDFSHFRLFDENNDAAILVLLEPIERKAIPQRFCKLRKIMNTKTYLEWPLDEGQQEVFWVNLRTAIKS
Procedure: TLR-2 stimulation. HEK293 cells stably co-transfected with mTLR2 and SEAP (HEK-Blue mTLR2 cells, InvivoGen) were cultivated in Dulbecco's Modified Eagle's Medium supplemented with 4.5 g/I glucose, 10% (v/v) fetal bovine serum, 100 U/ml penicillin, […], […], 2 mM L-glutamine. At 50-80% confluency, cells were seeded in Hek-Blue detection medium (InvivoGen) at a density of 50,000 cells/well in a 96-well plate containing NRs and controls. After 16 h incubation at 37° C. in 5% CO2, absorbance was monitored at 630 nm.

[5] = Thermal denaturation monitored by CD spectroscopy; type: physicochemical; details: CD at 222, 212 and 205 nm
[6] = test system: INS-1E cells; type: cell-based, Rat; details: 24 h, 50×10^−6 m
[7] = test system: HEK293T cells
[8] = test system: macrophage cells (J774A.1)
[9] = test system: dendritic-like cells (DC2.4)

Ac-KGSGSSNNFGAILSS-NH2 [Ac-KI10]
Morphology ([1]; pH 7.4): rope-like fibrils; also recorded: thick rope-like
Heigth [2]: 7.0 nm and 7.0 ± 0.7 nm
Surface charge [3]: 49 ± 5 mV

Pam2CSK4
SEAP activity [4]: SEAP activity was measured

HGSGSSNNFGAILSS [HI10]
Morphology of variants of the KI10 sequence [2]: do not adopt a short-like rod confirmation

islet amyloid polypeptide (KCNTATCATQRLANFLVHSSNNFGAILSSTNVGSNTY; Islet amyloid polypeptide; UniProt P10997 34-70, looked up) [IAPP]
Morphology ([1]; Tris 50×10^−3 M pH 7.4, rotary agitation 48 h, 150×10^−6 M (KKI10 500×10^−6 M)): polymorphic twisted ribbons and fibrils
Thermal denaturation [5]: no melt observed
calcein-AM/ethidium homodimer-1 staining [6]: increase of ethidium homodimer-1 and a decrease of calcein-AM staining
calcein-AM/ethidium homodimer-1 staining [7]: increase of ethidium homodimer-1 and a decrease of calcein-AM staining
Cytotoxicity [8]: high decrease of viability
Cytotoxicity [9]: high decrease of viability

RGSGSSNNFGAILSS [RI10]
Morphology of variants of the KI10 sequence [2]: do not adopt a short-like rod confirmation
